# The supplement of paper PMC10567573
# B1: TEKT4 (parent)
# chain: YARYHQAFADRDQSERQRHESQQL
# B2: TRIM14 (parent)
# chain: REQADSCREQLDIMNDLSNRVWSI
# Variants of: B1
# Assay: protein stability index of a GFP-peptide fusion (GPS, HEK-293T) (PSI 1-6); higher = more stable
# Conditions: c terminus: a fixed tail appended
# 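Also: lentivirally expressed fusions sorted by FACS into six bins by GFP to DsRed ratio, PSI derived from sequencing read proportions per bin multiplied by bin number.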
row,Variant,protein stability index
1,TARYHQAFADRDQSERQRHESQQL [Y1T],4.62
2,PARYHQAFADRDQSERQRHESQQL [Y1P],5.02
3,NARYHQAFADRDQSERQRHESQQL [Y1N],4.9
4,WARYHQAFADRDQSERQRHESQQL [Y1W],3.69
5,LARYHQAFADRDQSERQRHESQQL [Y1L],4.55
6,QARYHQAFADRDQSERQRHESQQL [Y1Q],4.76
7,MARYHQAFADRDQSERQRHESQQL [Y1M],4.44
8,RARYHQAFADRDQSERQRHESQQL [Y1R],4.08
9,CARYHQAFADRDQSERQRHESQQL [Y1C],3.46
10,FARYHQAFADRDQSERQRHESQQL [Y1F],2.07
11,GARYHQAFADRDQSERQRHESQQL [Y1G],5.11
12,KARYHQAFADRDQSERQRHESQQL [Y1K],4.76
13,VARYHQAFADRDQSERQRHESQQL [Y1V],4.91
14,IARYHQAFADRDQSERQRHESQQL [Y1I],4.55
15,SARYHQAFADRDQSERQRHESQQL [Y1S],4.87
16,AARYHQAFADRDQSERQRHESQQL [Y1A],3.9
17,EARYHQAFADRDQSERQRHESQQL [Y1E],5
18,DARYHQAFADRDQSERQRHESQQL [Y1D],5.23
19,HARYHQAFADRDQSERQRHESQQL [Y1H],4.54
20,YAAYHQAFADRDQSERQRHESQQL [R3A],2.85
21,YAGYHQAFADRDQSERQRHESQQL [R3G],1.98
22,YALYHQAFADRDQSERQRHESQQL [R3L],2.97
23,YAQYHQAFADRDQSERQRHESQQL [R3Q],2.57

row,Variant,protein stability index
1,YASYHQAFADRDQSERQRHESQQL [R3S],2.36
2,YANYHQAFADRDQSERQRHESQQL [R3N],2.79
3,YAWYHQAFADRDQSERQRHESQQL [R3W],2.2
4,YAYYHQAFADRDQSERQRHESQQL [R3Y],2.88
5,YAMYHQAFADRDQSERQRHESQQL [R3M],2.6
6,YAEYHQAFADRDQSERQRHESQQL [R3E],2.06
7,YAVYHQAFADRDQSERQRHESQQL [R3V],3.11
8,YATYHQAFADRDQSERQRHESQQL [R3T],2.79
9,YAHYHQAFADRDQSERQRHESQQL [R3H],2.64
10,YAPYHQAFADRDQSERQRHESQQL [R3P],1.6
11,YACYHQAFADRDQSERQRHESQQL [R3C],2.84
12,YAKYHQAFADRDQSERQRHESQQL [R3K],2.3
13,YAFYHQAFADRDQSERQRHESQQL [R3F],2.38
14,YAIYHQAFADRDQSERQRHESQQL [R3I],3.4
15,YADYHQAFADRDQSERQRHESQQL [R3D],3
16,YARKHQAFADRDQSERQRHESQQL [Y4K],3.78
17,YARIHQAFADRDQSERQRHESQQL [Y4I],3.32
18,YARFHQAFADRDQSERQRHESQQL [Y4F],2.12
19,YARGHQAFADRDQSERQRHESQQL [Y4G],3.08
20,YARAHQAFADRDQSERQRHESQQL [Y4A],3.28
21,YAREHQAFADRDQSERQRHESQQL [Y4E],4.1
22,YARHHQAFADRDQSERQRHESQQL [Y4H],2.36
23,YARCHQAFADRDQSERQRHESQQL [Y4C],2.39

row,Variant,protein stability index
1,YARDHQAFADRDQSERQRHESQQL [Y4D],3.46
2,YARMHQAFADRDQSERQRHESQQL [Y4M],3.21
3,YARLHQAFADRDQSERQRHESQQL [Y4L],2.92
4,YPRYHQAFADRDQSERQRHESQQL [A2P],2.7
5,YERYHQAFADRDQSERQRHESQQL [A2E],4.29
6,YHRYHQAFADRDQSERQRHESQQL [A2H],4.12
7,YRRYHQAFADRDQSERQRHESQQL [A2R],4.27
8,YMRYHQAFADRDQSERQRHESQQL [A2M],2.27
9,YDRYHQAFADRDQSERQRHESQQL [A2D],4.3
10,YWRYHQAFADRDQSERQRHESQQL [A2W],2.68
11,YVRYHQAFADRDQSERQRHESQQL [A2V],1.87
12,YQRYHQAFADRDQSERQRHESQQL [A2Q],1.84
13,YYRYHQAFADRDQSERQRHESQQL [A2Y],3.58
14,YKRYHQAFADRDQSERQRHESQQL [A2K],3.82
15,YNRYHQAFADRDQSERQRHESQQL [A2N],2.85
16,YSRYHQAFADRDQSERQRHESQQL [A2S],1.92
17,YFRYHQAFADRDQSERQRHESQQL [A2F],2.87
18,YLRYHQAFADRDQSERQRHESQQL [A2L],2.09
19,YIRYHQAFADRDQSERQRHESQQL [A2I],2.5
20,YTRYHQAFADRDQSERQRHESQQL [A2T],1.67
21,YCRYHQAFADRDQSERQRHESQQL [A2C],1.48

# Variants of: B2
# Assay: as above
# Conditions: c terminus: a fixed tail appended
row,Variant,protein stability index
1,REQADSCREQLDIMNDLQNRVWSI [S18Q],1.63
2,REQADSCREQLDIMNDLVNRVWSI [S18V],1.99
3,REQADSCREQLDIMNDLRNRVWSI [S18R],1.64
4,REQADSCREQLDIMNDLTNRVWSI [S18T],2.05
5,REQADSCREQLDIMNDLWNRVWSI [S18W],2.21
6,REQADSCREQLDIMNDLYNRVWSI [S18Y],2.07
7,REQADSCREQLDIMNDLPNRVWSI [S18P],2.35
8,REQADSCREQLDIMNDLSPRVWSI [N19P],2.95
9,REQADSCREQLDIMNDLSWRVWSI [N19W],2.12
10,REQADSCREQLDIMNDLSMRVWSI [N19M],2.53
11,REQADSCREQLDIMNDLSFRVWSI [N19F],1.54
12,REQADSCREQLDIMNDLSDRVWSI [N19D],3.16
13,REQADSCREQLDIMNDLSIRVWSI [N19I],1.98
14,REQADSCREQLDIMNDLSGRVWSI [N19G],2.61
15,REQADSCREQLDIMNDLSRRVWSI [N19R],2.3
16,REQADSCREQLDIMNDLSERVWSI [N19E],2.98
17,REQADSCREQLDIMNDLSVRVWSI [N19V],2.39
18,REQADSCREQLDIMNDLSARVWSI [N19A],2.91
19,REQADSCREQLDIMNDLSHRVWSI [N19H],2.26
20,REQADSCREQLDIMNDLSTRVWSI [N19T],2.04
21,REQADSCREQLDIMNDLSQRVWSI [N19Q],2.94
22,REQADSCREQLDIMNDLSCRVWSI [N19C],1.58
23,REQADSCREQLDIMNDLSYRVWSI [N19Y],2.08
24,REQADSCREQLDIMNDLSLRVWSI [N19L],2.08
25,REQADSCREQLDIMNDLSSRVWSI [N19S],3.17
26,REQADSCREQLDIMNDLSKRVWSI [N19K],2.1
27,REQADSCREQLDIMNDLSNRVWSW [I24W],2.31
